Measurements taken from patent US20250376667A1.

B1: matrix metalloproteinase 7 (MMP7) (enzyme, UniProt P09237 95-267, looked up, species assumed)
Matrilysin: YSLFPNSPKWTSKVVTYRIVSYTRDLPHITVDRLVSKALNMWGKEIPLHFRKVVWGTADIMIGFARGAHGDSYPFDGPGNTLAHAFAPGTGLGGDAHFDEDERWTDGSSLGINFLYAATHELGHSLGMGHSSDPNAVMYPTYGNGDPQNFKLSQDDIKGIQKLYGKRSNSRKK

What was measured:
[1] = tested on: control peptide comprising PCL1 (PCL1 Pep)
[2] = tested on: KL958 (C521S C370S)-PCL1-HSA

Sequence of control peptide comprising PCL1 (PCL1 Pep) (chain, as listed by the source): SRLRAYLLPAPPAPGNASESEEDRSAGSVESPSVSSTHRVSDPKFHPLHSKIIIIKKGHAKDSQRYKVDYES

| Molecule | protease cleavage of the peptide in vitro [1] | protease cleavage in reaction buffer, immunoblot with anti-KL antibodies [2] | protease cleavage in reaction buffer, immunoblot with anti-KL antibodies (KL958 (C521S)-PCL1-HSA) |
| --- | --- | --- | --- |
| kallikrein 2 (KLK2) | The ability of two proteases, kallikrein 2 (KLK2) and matrix metalloproteinase 7 (MMP7), to cleave the protease cleavable linker PCL1 was confirmed using a control peptide comprising PCL1 (PCL1 Pep) | – | – |
| B1 | The ability of two proteases, kallikrein 2 (KLK2) and matrix metalloproteinase 7 (MMP7), to cleave the protease cleavable linker PCL1 was confirmed using a control peptide comprising PCL1 (PCL1 Pep) | PCL1-containing KL polypeptides displayed cleavage of the linker, resulting in a shorter KL polypeptide in the presence of MMP7 | PCL1-containing KL polypeptides displayed cleavage of the linker, resulting in a shorter KL polypeptide in the presence of MMP7 |
